From paper PMC3662644, “Genome wide analysis of the complete GlnR nitrogen-response regulon in Mycobacterium smegmatis”

T1: His-GlnR (Mycobacterium smegmatis, UniProt A0R4C4 1-261)
T1 sequence: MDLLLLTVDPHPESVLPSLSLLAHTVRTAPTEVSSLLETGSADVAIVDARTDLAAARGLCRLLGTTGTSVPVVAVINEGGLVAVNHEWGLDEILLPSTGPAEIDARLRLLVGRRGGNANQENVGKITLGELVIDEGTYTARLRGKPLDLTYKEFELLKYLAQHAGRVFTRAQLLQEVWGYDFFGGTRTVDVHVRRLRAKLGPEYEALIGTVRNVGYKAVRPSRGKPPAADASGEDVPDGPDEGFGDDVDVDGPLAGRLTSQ

T2: His-GlnR (Mycobacterium smegmatis (mc2 155?)) (UniProt A0R4C4)
T2 sequence: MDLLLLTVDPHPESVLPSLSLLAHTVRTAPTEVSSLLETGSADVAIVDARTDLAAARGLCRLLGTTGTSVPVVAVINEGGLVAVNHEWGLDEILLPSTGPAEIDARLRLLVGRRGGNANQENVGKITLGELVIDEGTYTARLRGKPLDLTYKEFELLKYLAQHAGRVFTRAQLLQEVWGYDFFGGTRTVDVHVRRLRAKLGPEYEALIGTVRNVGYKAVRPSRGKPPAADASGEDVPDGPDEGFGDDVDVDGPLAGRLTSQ

B1: Peak 24 GG (dsDNA)
DNA 1: TCATGTCGAGGTTAGGTTGTTCGTCGGACACAGACATT
DNA 2: AATGTCTGTGTCCGACGAACAACCTAACCTCGACATGA
B2: Peak 24 G (dsDNA)
DNA 1: TCATGTCGAGGTTAGTTTGTTCGTCGCACACAGACATT
DNA 2: AATGTCTGTGTGCGACGAACAAACTAACCTCGACATGA
B3: Peak 2 GG (dsDNA)
DNA 1: GCAATCGCGGGGTAGGGCCGTGGAAGGAGAGCCTGCCT
DNA 2: AGGCAGGCTCTCCTTCCACGGCCCTACCCCGCGATTGC
B4: Peak 2 G (dsDNA)
DNA 1: GCAATCGCGGGGTAGCGCCGTGGAAGCAGAGCCTGCCT
DNA 2: AGGCAGGCTCTGCTTCCACGGCGCTACCCCGCGATTGC

These molecules were tested against T1, His-GlnR (assay: EMSA; EMSA: 0.4 ng DIG-labelled DNA, 0-0.9 ug His-GlnR, 0.5 ug poly d(A-T), 25 mM Hepes pH 7.9, 150 mM NaCl, 2.5 mM MgCl2, 37 C, 15 min). Details: protein: recombinant; tags: N-terminal His6 (pET28b); chain copies: 2; label: DIG 3'-end; blunt.

Molecule	binding result
B1	no binding
B2	no binding
B3	no binding
B4	no binding

Each molecule was assayed against T2, His-GlnR (Mycobacterium smegmatis (mc2 155?)) (assay: EMSA). Details: EMSA: 0.4 ng DIG-labelled DNA, 0-0.9 ug His-GlnR, 0.5 ug poly d(A-T), 25 mM Hepes pH 7.9, 150 mM NaCl, 2.5 mM MgCl2, 37 C, 15 min.

Molecule	binding
AACGGTGTGCTTCCTCCGCTGTAGGTGGATCACCGCGTGAAGCGGGTGACCGGTGCAGGGTCGGCGCAACTTACTGCGCTTGGAAAATGCTCGCGCAGGAACGTTTCGGTGGATCCCGTCGGCAATGTCGGTGACGTTAACTCTGCACGGCCCCGCGTTACGTTGTGGTGACCTGACGCAACGGATTTCGTTGTGTGTCCGGTAG (double strand) [peak 22 MSMEG2526 promoter]	binds
AAGCCGGATCCAGACGTGTGTTTCCGCGGCATCGGGCGACTGTGTGCTCGATGTTTAGACTTTACTGCTTGGTAACCTACGGAGCCGTAGGTTACGGTAGCGTAGGTAGACGAAAGGAGGGTTGCCAATGGCTGTTACCGACGTCCCGGCGTTCGCGCATCTGACCGAAGCCGATATCGAGAACCTGGGTATCGAGC (double strand) [peak 13 MSMEG1886 promoter]	binds
AGCTTGCCTACGAGCTCGAGGAGGCGCGGCCCTGGGCGCGCATACAAGATGTCACCGCGACCAAGCAGCCGCGTAAGCGGGCCGCGAAGAAGGCCACGAAAACCACGGAGTAGGGCACAAACCGGCGTGGCGCGTGACATGACCCCGTAACCCGGGCCGTGTCCTGTTAACGAACTCGACACCGCGAACGGCTGCGGGTGAAACATCGGGCTCGCAGCATCCCTCATT (double strand) [peak 21 MSMEG2522 promoter]	binds
GACGCGTCCATTCGGTTGTCCTCCCCGTTGTCGACGGGCCCGAAGCTACCCACGCCATGTTGCGACGACGTTGCGGTTGCGTTCGAACCCGTTGACATCAGCCAGAATTGACGCACGCGTCGGACTACCAGCGGTAGTCGAGGAACTTCCCGTCGAAGGTCACCACCACCCGGTCCCCGTCTGGATCGGGACGACGCTGGATGTCCACCTTGAAGTTGATGGCGCTCATG (double strand) [peak 42 MSMEG5358 promoter]	binds
GAGTGTTTGCGGGGCGTTACAGCCGGCGTTGGCTGTGCAACGACCTGTGCTTTGTCGGCGGGAAACATGAGCGTAACAGTGATCGGGATTGCGTTCACTTTCCGGAAACGCAACGGCAGCACCGGCGAAACGCCGGCAACAGAATCTCATCGGGAGGCCGATCCGTCGGCGCACTTCCCAAGGAGGTTCACACAAA (double strand)	binds
GCGCTGCTGGTCATGGGTTTTCTCTCTGGCTAGGGGCGCTGCCGCCAGCTCTTACCTGTCAGATGACAGATAACAATGGGCGCGTGTCCTCGGCGTCACCCGAATGTTTCGTTCATGTAGCCGTCGGTAAGCATTCGGTTGCAGAACCCTCACCGCCCGTGGGCCTGTCACAATCGCCGGTATGCCCGCCCCCGACCTCGTGCAGCGCCACATCGACG (double strand) [peak 17 MSMEG2184 promoter]	binds
GTACGGGTCGCGCACCTTGTCGGTGAGGATGAGGATCGCATCGACGATGCCCCAGATGAAGGCACCGATGCCACACGTCACCAGGCCCACGATCAGCTGCGCGATGCCGAGCCCGGTCTGCCCCAGATAGATCCGCCCGAACCCGACGAAACCGACCAGGCCGATCAACTGCAACAGGC (double strand) [MSMEG3224 promoter (negative control)]	no binding
